Test [1] concerns the target PTDHI (phosphite dehydrogenase with a C-terminal RIDD tag).
Test [2] addresses PTDHA2 (phosphite dehydrogenase with a C-terminal RIAD–RIAD tag). The test can be described thus: SEC; each purified tagged protein alone, in the absence of any other tagged protein; Superdex 200 (10/300), 50 mM Tris–HCl with 150 mM NaCl, pH 7.5. For orientation: Size exclusion chromatography separates by hydrodynamic size, large species first.
In test [3] the target is PTDHA (phosphite dehydrogenase with a C-terminal RIAD tag). The description is as above.

Data on four substances can be found in publication PMC8234031, “Modular Assembly of Phosphite Dehydrogenase and Phenylacetone Monooxygenase for Tuning Cofactor Regeneration” (Biomolecules, 2021).

For the substance “PAMOA2 (phenylacetone monooxygenase with a C-terminal RIAD–RIAD tag) (enzyme)”, the conversion of 5.0 mM bicyclo[3.2.0]hept-2-en-6-one after 24 h by the mixture of the two tagged enzymes in test [1] is 78%.

“PAMOA (phenylacetone monooxygenase with a C-terminal RIAD tag) (enzyme)”: the conversion of 5.0 mM bicyclo[3.2.0]hept-2-en-6-one after 24 h by the mixture of the two tagged enzymes in test [1] came out at 78%.

Take “PTDHA2 (phosphite dehydrogenase with a C-terminal RIAD–RIAD tag) (enzyme)”: the stoichiometry N (usually the number of molecules, sites or subunits per partner or assembly) in test [2] came to 2.

As to “PTDHA (phosphite dehydrogenase with a C-terminal RIAD tag) (enzyme)”, the stoichiometry N in test [3] was found to be 2.
